For this test, the target named is PP2A-B55 phosphatase (B55, A and C subunits) of Xenopus egg extracts (Xenopus (endogenous in egg extracts)) (UniProt Q7ZX64). Nature of the test: enzyme inhibition kinetics (dephosphorylation of p-S113-Arpp19); kinase inactivated interphase extracts diluted 1/50 to 1/200; substrate p-S113-Arpp19 120 to 2000 nM; FAM122A 50, 125 and 250 nM or Thio-S71-Arpp19 1, 2 and 3 nM; quantitative western blot; global fit, competitive mode. (In general: In western blotting, separated proteins are transferred to a membrane and probed.)

Among the data in paper PMC10943098 are Ki values, retold here.

pKi: −log10 of the molar value.

“His-Xenopus FAM122A (wildtype) (natural protein)”: the pKi – broadly, the negative decadic logarithm of the Ki, by convention in mol/L – is 7.55.

Regarding “untagged thio-S71-phosphorylated Arpp19 (natural protein)”, the pKi was 9.66.
